Experimental data from US20140274782A1, “AFFINITY REAGENTS AND METHODS FOR DETECTION, PURIFICATION, AND PROTEOMIC ANALYSIS OF METHYLATED PROTEINS” (The Board of Trustees of the Leland Stanford Junior …, priority 2013, published 2014).
Each block holds one molecule with its values, some of them ahead of it.

Tests used:
3×MBT domain of L3MBTL1 = assay: Triple SILAC pull-down, 3xMBT/3xMBTD355N ratio (cytoplasmic, nuclear and chromatin fractions of 293T cells); type: binding, human; settings: SILAC ratio 3xMBT vs 3xMBTD355N pull-down, 293T cells, all values in log base 2; for 3xMBT/D355N UNC Heavy: experiment with UNC0638 in heavy SILAC media; for 3xMBT/D355N UNC Light: experiment with UNC0638 in light SILAC media;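 on all read-outs here: proteins quantified with MaxQuant, requiring at least two unique peptides and quantification in both label directions, normalized to the mean of proteins from a digested loading control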
G9a and GLP = target: T1, G9a and GLP (Homo sapiens, UniProt Q96KQ7+Q9H9B1); assay: Triple SILAC pull-down after UNC0638 treatment of 293T cells, DMSO/UNC0638 ratio of protein captured by 3×MBT; type: cell-based; parameters: endogenous in cells; host or cells: HEK 293T; settings: all values in log base 2; for Relative to UNC0638 UNC Heavy / Relative to UNC0638 UNC Light: SILAC ratio DMSO relative to UNC0638, pull-down with 3xMBT; for Relative to UNC0638 UNC Heavy: UNC0638 in heavy SILAC media; for Relative to UNC0638 UNC Light: UNC0638 in light SILAC media; for Relative to UNC0638 Average: average of UNC Light and UNC Heavy experiments;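 on all read-outs here: mass spectrometry (Q-Exactive) SILAC quantitation, DMSO/UNC0638 ratio computed after subtracting 3×MBTD355N mutant pull-down background, only proteins with at least twofold 3×MBT over mutant signal considered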
T1 sequence (Q96KQ7 2-1210 limits assumed): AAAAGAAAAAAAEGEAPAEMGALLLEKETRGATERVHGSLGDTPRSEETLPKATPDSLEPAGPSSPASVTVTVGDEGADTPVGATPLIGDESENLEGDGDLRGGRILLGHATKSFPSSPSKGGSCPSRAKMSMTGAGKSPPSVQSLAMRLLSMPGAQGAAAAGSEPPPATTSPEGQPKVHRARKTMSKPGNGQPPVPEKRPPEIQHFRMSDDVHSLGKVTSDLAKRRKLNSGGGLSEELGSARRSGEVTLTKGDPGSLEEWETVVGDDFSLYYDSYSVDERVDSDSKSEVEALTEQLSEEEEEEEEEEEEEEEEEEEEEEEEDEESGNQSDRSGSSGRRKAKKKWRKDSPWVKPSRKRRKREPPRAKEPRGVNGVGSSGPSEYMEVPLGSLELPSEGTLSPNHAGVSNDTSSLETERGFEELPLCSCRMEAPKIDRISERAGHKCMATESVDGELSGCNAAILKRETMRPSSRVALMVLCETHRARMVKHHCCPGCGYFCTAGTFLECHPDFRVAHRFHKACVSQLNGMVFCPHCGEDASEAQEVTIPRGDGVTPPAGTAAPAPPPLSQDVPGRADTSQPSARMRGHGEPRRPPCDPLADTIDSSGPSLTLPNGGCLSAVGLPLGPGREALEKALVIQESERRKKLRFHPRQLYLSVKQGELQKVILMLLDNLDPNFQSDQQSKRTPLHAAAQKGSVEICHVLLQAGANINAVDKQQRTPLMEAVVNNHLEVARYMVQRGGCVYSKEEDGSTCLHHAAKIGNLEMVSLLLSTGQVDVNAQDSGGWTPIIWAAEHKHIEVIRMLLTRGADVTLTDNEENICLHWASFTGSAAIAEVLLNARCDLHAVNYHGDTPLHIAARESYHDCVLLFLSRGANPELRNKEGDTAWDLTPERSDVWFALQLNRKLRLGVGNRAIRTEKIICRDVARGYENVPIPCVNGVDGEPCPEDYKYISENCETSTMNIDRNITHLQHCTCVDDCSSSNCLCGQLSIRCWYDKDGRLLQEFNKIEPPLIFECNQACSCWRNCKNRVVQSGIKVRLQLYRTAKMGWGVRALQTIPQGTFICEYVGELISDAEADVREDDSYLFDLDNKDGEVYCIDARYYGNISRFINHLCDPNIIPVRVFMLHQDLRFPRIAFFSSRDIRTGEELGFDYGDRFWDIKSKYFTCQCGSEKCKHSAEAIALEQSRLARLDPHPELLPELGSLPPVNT
T1 sequence (Q9H9B1 2-1298 limits assumed): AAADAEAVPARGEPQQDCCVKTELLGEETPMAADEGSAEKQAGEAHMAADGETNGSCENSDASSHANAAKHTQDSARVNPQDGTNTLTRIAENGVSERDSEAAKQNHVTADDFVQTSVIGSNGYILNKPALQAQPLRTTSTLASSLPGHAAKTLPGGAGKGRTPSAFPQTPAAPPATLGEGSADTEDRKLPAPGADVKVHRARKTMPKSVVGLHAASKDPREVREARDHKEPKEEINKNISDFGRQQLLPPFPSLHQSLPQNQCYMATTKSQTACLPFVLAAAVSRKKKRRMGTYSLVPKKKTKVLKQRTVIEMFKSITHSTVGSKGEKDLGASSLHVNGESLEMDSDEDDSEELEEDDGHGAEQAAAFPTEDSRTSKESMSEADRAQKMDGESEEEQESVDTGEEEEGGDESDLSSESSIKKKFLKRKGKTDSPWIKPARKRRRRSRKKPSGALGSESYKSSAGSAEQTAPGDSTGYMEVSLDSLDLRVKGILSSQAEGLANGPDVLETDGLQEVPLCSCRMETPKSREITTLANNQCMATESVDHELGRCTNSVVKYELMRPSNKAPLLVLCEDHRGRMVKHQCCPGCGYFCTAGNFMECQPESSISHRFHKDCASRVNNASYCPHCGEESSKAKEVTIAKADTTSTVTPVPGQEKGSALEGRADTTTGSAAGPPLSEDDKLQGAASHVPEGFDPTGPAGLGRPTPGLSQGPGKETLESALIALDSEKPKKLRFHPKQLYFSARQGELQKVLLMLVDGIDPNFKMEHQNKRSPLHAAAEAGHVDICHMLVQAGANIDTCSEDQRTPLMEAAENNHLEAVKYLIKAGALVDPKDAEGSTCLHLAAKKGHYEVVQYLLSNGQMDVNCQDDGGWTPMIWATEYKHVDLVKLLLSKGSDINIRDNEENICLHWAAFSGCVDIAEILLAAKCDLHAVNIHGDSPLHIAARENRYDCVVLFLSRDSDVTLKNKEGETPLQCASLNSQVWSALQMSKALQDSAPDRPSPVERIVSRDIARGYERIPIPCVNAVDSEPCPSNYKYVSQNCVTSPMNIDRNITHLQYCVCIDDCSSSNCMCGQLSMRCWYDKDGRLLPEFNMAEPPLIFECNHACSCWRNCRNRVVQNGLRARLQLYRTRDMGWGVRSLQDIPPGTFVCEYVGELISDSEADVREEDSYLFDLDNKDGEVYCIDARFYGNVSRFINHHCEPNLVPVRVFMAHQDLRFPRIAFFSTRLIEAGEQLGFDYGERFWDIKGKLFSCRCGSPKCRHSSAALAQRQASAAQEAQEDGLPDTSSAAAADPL

Relative to UNC0638 UNC Heavy (G9a and GLP): −0.03 log base 2
Relative to UNC0638 UNC Light (G9a and GLP): 0.05 log base 2
Relative to UNC0638 Average (G9a and GLP): 0.01 log base 2
B1: PAICS (protein, UniProt P22234 2-425, looked up)
Bifunctional …: ATAEVLNIGKKLYEGKTKEVYELLDSPGKVLLQSKDQITAGNAARKNHLEGKAAISNKITSCIFQLLQEAGIKTAFTRKCGETAFIAPQCEMIPIEWVCRRIATGSFLKRNPGVKEGYKFYPPKVELFFKDDANNDPQWSEEQLIAAKFCFAGLLIGQTEVDIMSHATQAIFEILEKSWLPQNCTLVDMKIEFGVDVTTKEIVLADVIDNDSWRLWPSGDRSQQKDKQSYRDLKEVTPEGLQMVKKNFEWVAERVELLLKSESQCRVVVLMGSTSDLGHCEKIKKACGNFGIPCELRVTSAHKGPDETLRIKAEYEGDGIPTVFVAVAGRSNGLGPVMSGNTAYPVISCPPLTPDWGVQDVWSSLRLPSGLGCSTVLSPEGSAQFAAQIFGLSNHLVWSKLRASILNTWISLKQADKKIRECNL
3xMBT/D355N UNC Heavy (3×MBT domain of L3MBTL1): 1.12 log base 2
3xMBT/D355N UNC Light (3×MBT domain of L3MBTL1): 1.04 log base 2

Relative to UNC0638 UNC Heavy (G9a and GLP): 0.03 log base 2
Relative to UNC0638 UNC Light (G9a and GLP): 0.03 log base 2
Relative to UNC0638 Average (G9a and GLP): 0.03 log base 2
B2: XPC (protein, UniProt Q01831 2-940, looked up)
DNA repair protein …: ARKRAAGGEPRGRELRSQKSKAKSKARREEEEEDAFEDEKPPKKSLLSKVSQGKRKRGCSHPGGSADGPAKKKVAKVTVKSENLKVIKDEALSDGDDLRDFPSDLKKAHHLKRGATMNEDSNEEEEESENDWEEVEELSEPVLGDVRESTAFSRSLLPVKPVEIEIETPEQAKTRERSEKIKLEFETYLRRAMKRFNKGVHEDTHKVHLLCLLANGFYRNNICSQPDLHAIGLSIIPARFTRVLPRDVDTYYLSNLVKWFIGTFTVNAELSASEQDNLQTTLERRFAIYSARDDEELVHIFLLILRALQLLTRLVLSLQPIPLKSATAKGKKPSKERLTADPGGSSETSSQVLENHTKPKTSKGTKQEETFAKGTCRPSAKGKRNKGGRKKRSKPSSSEEDEGPGDKQEKATQRRPHGRERRVASRVSYKEESGSDEAGSGSDFELSSGEASDPSDEDSEPGPPKQRKAPAPQRTKAGSKSASRTHRGSHRKDPSLPAASSSSSSSKRGKKMCSDGEKAEKRSIAGIDQWLEVFCEQEEKWVCVDCVHGVVGQPLTCYKYATKPMTYVVGIDSDGWVRDVTQRYDPVWMTVTRKCRVDAEWWAETLRPYQSPFMDREKKEDLEFQAKHMDQPLPTAIGLYKNHPLYALKRHLLKYEAIYPETAAILGYCRGEAVYSRDCVHTLHSRDTWLKKARVVRLGEVPYKMVKGFSNRARKARLAEPQLREENDLGLFGYWQTEEYQPPVAVDGKVPRNEFGNVYLFLPSMMPIGCVQLNLPNLHRVARKLDIDCVQAITGFDFHGGYSHPVTDGYIVCEEFKDVLLTAWENEQAVIERKEKEKKEKRALGNWKLLAKGLLIRERLKRRYGPKSEAAAPHTDAGGGLSSDEEEGTSSQAEAARILAASWPQNREDEEKQKLKGGPKKTKREKKAAASHLFPFEQL
3xMBT/D355N UNC Heavy (3×MBT domain of L3MBTL1): 2.62 log base 2
3xMBT/D355N UNC Light (3×MBT domain of L3MBTL1): 3.99 log base 2
